This data set in a line: label from the status in PepcDB records.
With “MQGQNQQQAYDRGITIFSPDGRLYQVEYAREAVKRGTASIGVRTSDGVVLAVDKRIRSPLMERSSVEKIHKADDHIGIASAGHVADARQLIDFARRQAQVNQLRYGEPVGVETLTKEITDYIQQYTQVGGARPFGVALIIGGIVNGEPRLFETDPSGTPYEWKALAVGADRGDIRDYLEEHYDEGMDLDEGVDLALAALASVNDDELSPEGIGVATVDVETETFGQLTDEEKEAHLAEADLLDTGEDADDEAEDEDATEE”, the protein production result is listed as “failed”.

With “MGSSHHHHHHSSGRENLYFQGMAGGKSMNVESYEKILRDRQRELYRRLHKIEADFEEPRNPDDEDRASERSNDEVLDELGQVGQDELRAIDAALARIASGTFGTCVKCGKRISEDRLKAVPYTPFCQECAAAL”, the protein production result was “not failed”.

Turning to “MFFMQNTKSIYIIIPVHNRREVTLQCLTTLKLNEDLDQYRIVVVDDDSTDGTREAVNAQFPQVIVLEGDGNLWWTGAVKMGMKYAYEQGGELFILLNDDCYPQMGTISKLLKKIDENPNSVIGVQCLDPKSKEPSYGGILTNNNKLQVVKIFHTFNSMTDCDALNGNLLAIPRNIVDKVGFPDAKRFPHHFGDFVYTNRIKKEGYKLFLCNDIVALCEYHYNGLSKKSSQFNRFQELFTPTSQFYWKTEMKGYIELFGIKGIIIYLHKRCLLSSLKVIFLLLDQKLTL”, the protein production entry is on record as “failed”.

For “MATSSTQLLLSSSSLFHSQITKKPFLLPATKIGVWRPKKSLSLSCRPSASVSAASSAVDVNESVTSEKPTKTLPFRIGHGFDLHRLEPGYPLIIGGIVIPHDRGCEAHSDGDVLLHCVVDAILGALGLPDIGQIFPDSDPKWKGAASSVFIKEAVRFRRLP”, the protein production entry is “failed”.

In the case of “MATASIAIAETPLVNYALRRGDDALVLGHRLSEWCGHAPMLEEDMALANIGLDLIGQARELFNYAAEVEGAANTEDSLAYLRDVRQYRNLLLVEQPNGDFARTMLRQLFYSAFADSYWRAMMGSSDPTLAAIAAKSEKESAYHLRHASEWVIRLGDGTEESHRRAQAAVDELWAFTGEMFQVDDGDAALIADGIAIDPERLRAGWSETVASVLARATLQQPSSSWMQKGGRAGHHSEHLGHLLSELQSLQRSFPGATW”, the protein production result is “failed”.

As to “MAGMDNLIAIAAAMLYLLSIATIVPGLVNQTGIRAKTVFISAAIALLFHGWLLSDLILHSSGQNLSILNVASLISFIISLAMSLAMFKTRLWFLLPVAYSFSAINLSAATFLPGTFITHLESDPKLLLHISLALFSYSTLSIGALYALQLAWLDHKLKSKKVFSINPNLPPLLLVERQLFKIILIGNLLLTGTLLTGFIFVQDMFAQGKAHKGILSFVAWIVYSILLWGHYRKGWRGKKVTWFAVAGATLLTLAYFGSRFVREIILR”, the protein production result is “failed”.

As for “MTAPGSMPLTVIGGFLGAGKTTLLNYLLKVQHSERVLVMVNDFGSINIDAELLDQGRHDRPGVVRLQNGCVCCSIGGDLMQAFLQVMSMPDRPDRIIVEASGVADPTRIAQIGRVSGGLSDEGVITLVDASAVRTLAADKYVGDIVRQQILSADIVLLNKLDLSSDAEIVETRAWLRDLAPRTRVVSCIHGEVDAVSVLGIGAGKVAPDAAGGPVDVPVPDLRRASTRHADTFHSSTLATAHRFDRRRIEYALDALPQTVLRGKGFVELEGEATPALLQLCGSRWTLDPVSTPAPPAGTHLVFIATGGRGVPRFDAPSHFEQALASRDAASADTSNLEHHHHHH”, the protein production entry is “not failed”.

Take “MRMTLRQLRIFNEVCDLRSYSRAAEEMSLTQPAVSLQVRQLEELIGQPLFEYVGKKLYMTEAAEALQLASRDIFGRLESLDMQLSDMQGSLQGQLKLAVESSCKYFIPHLFAAFKRQHPEVSLSLMVVNRAQIIRRLSDNRDDLVVMSAVPLDMGLEFLPFLNNPIVAVAPPDHPLSSRETLSLKDLEPWPLLTRETGSGTRRACEEYFKEKRVHFTQTLEVSSSEAQRECVVAGLGLAMLTRHAVCQELATGTLVELPVAELPLYRSWCVVQARDKRLSPVAHAFLAFIRTERAQISQLVERFDGRPQAV”: the protein production result was “failed”.

As for “KVGLIIISHGRIATETVNVVKELLGVKFPVAIDMPLDEKPINIYNKAVELSKIIDQGKGILFLVDIGSLTNIGQIVNKRTNISTKTIDRVDLLMALEATRKVSMGEEELDEIFFSLLKDRMGYNYELEKHIDKS”, the protein production result was “failed”.

Take “LLNMKRAETGKALSPLQIQELQYMLEDFSPELIHEALKEAVSQGKANFAYIKVILNRWKQDNLLTVELVRN”: the protein production result is listed as “failed”.

With “MELIRFSISIPSKLLEKFDQIIEEIGYENRSEAIRDLIRDFIIRHEWEVGNEEVAGTITIVYNHDEGDVVKALLDLQHEYLDEIISSLHVHMDEHNCLEVIVVKGEAKKIKMIADKLLSLKGVKHGKLVMTSTGKELV”, the protein production entry is “not failed”.

Regarding “SNGQADRCDRTAYVSGLQPTISDIELFEVFNRVAHVEKVIVRNGAARHALIVFKTVQGLYQVLVNFQGTTLHGRQLHIRPLRESSHANSEAISTMFEKVKHQGNSGNSSYRQEHSFPEYRNQNPQASSYLPPNPRGHRNSTGCFNGGGGGYGRRRSAGGYNQYNQNKYPNETYPGMTLFDNHPVQQYSGFNPIDFRFDDYVEGAKRFDNLANLIRSSTPTDPFANYQKPCESTSTSRSRTNSAKDQKHGPPTWKMELQIKKDDHHHAGGGAATTGQKLSPQQFLAQIAQRQQSEQNADEVAKKKRPNLSVINPSLFYEQYPRTSSPVVYASKSKPSGHYDDKIASPHDPAVLAYSRLRVPQSAFDSLSPIDTDNCSFITKHLGPTTGVKRDLTNDELSDMIVSTGNLRINPTNIDHHDEPAPWSPLKRLRAESGSLSTAQVASPEFSPIKPKTMEFHETEDDVFETGPPPTYLSEGNENAEKKCVEQPKINYDDINNSRLPSNSHSAAPNSEKKHFVFPEYPMCRHSSVPSIAHLVGDLSDFCPHATADEKMLLDEASSIIENTTPAVSTAPAAAPGATMLQI”, the protein production entry is “not failed”.

As to “MIATLRSYLSADKRGLVGPAFLFLSLLASISDPFGGYGMTFLRRFLFWVLVLGVAGGIAFLSHRMVERHLSGAPLLGKDLLIVLLVTLSFTPSLWVLIFLFAAPSTGTAPDMWSMARYGTIFASGLIVLRRGVFGQSVPEEESLQPRIYKRLPEGFSEQILRLTVRDHSVDVVTDKGVHTIRSRFGDAIDEMVPISGHCTHRSHWVTDTAIESVERSGGKIHLRLSNGDLIPVSRKYRPALEEAGIV”, the protein production entry is “failed”.

With “MVVIDPTLLGILACPQDKGPLLLVGDELLYNPRLRRAYPIENGIPVLLIDEARDVGADEHETLLARAAGEA”, the protein production entry is given as “not failed”.

As for “MSFQEIPIIDLQEAFDPATRSKFLEEVRDAIINVGFLLLKNYESLGPTEEDLQSIKQQAIEFFALPAKEKLQCEMLNSPHFLGYTRLANEITASHTDWREQIDLATELPAPKEGEPLYKNIEGPNLWPNPEVIPKFRPTIERFIEKMTALSNVFKDLVAESIGVDPKALNRYFKENQQCKMKLIAYPDVSELDGTKSAALDDTPETNQGVEPHRDSDLITYIYQATEHQNSLQVQNFQGHWITVPNIPGHLVVNNGQTLQAITGGVAKATIHRVLVPEKGTGTRISIPFFQTIDLDSSKGVVDNLPQEVIDLKNERDKKIKDWGVDTGFQFEPDVSKEPIGHAVFRNRIKSHQDVAKKWYPDVLKSVLQEYTH”, the protein production entry is “not failed”.

“MEGMDPLAVLAESRLLPLLTVRGGEDLLGLARVLEEEGVGALEITLRTEKGLEALKALRKSGLLLGAGTVRSPKEAEAALEAGAAFLVSPGLLEEVAALAQARGVPYLPGVLTPTEVERALALGLSALKFFPAEPFQGVRVLRAYAEVFPEVRFLPTGGIKEEHLPHYAALPNLLAVGGSWLLQGNLEAVRAKVRAAKALLSPQAPG”: the protein production entry is recorded as “not failed”.

For the sequence “HLHLRVKLLDNTMEIFDIEPKCDGQVLLTQVWKRLNLVECDYFGMEFQNTQSYWIWLEPMKPIIRQIRRPKNVVLRLAVK”, the protein production result is “failed”.

As to “MTESNFDLPIISVIIPAYNCEKTIKKTIDSVLDQSFTDFELIVINDGSQDATLDIVSQIEDSRIKIFSFENAGGNVSRNRGLNLAVGKFISFLDADDIWTPNKLESQLEALHNNPGFHVAYSWTDYIDEDGNFLISGRRVTLNGDVYKKLFINNFLENGSNPLICKEALIALGGFDESLKAAQDWDMWLRLANKYSFVAVPYVQILYRVSSNSLSSNLVRQEKACKQVLEKAYQARPAIGNHILHLSIANLYKYLACKALQKPYSRSKGLAAVKFIWQYFLYDSSRMRRINSTLKLLFKALIIIILPAGLSTELLAKMRTKSLNPQLSAISGS”, the protein production result is reported as “failed”.

In the case of “MTRRRKILTGVLALVVLAAGGLAAARALGPGGTRVTAYFDRAIGVYAGSDLRILGVRVGEVESVDPEGTRVRVGLRLDDGIKVPEDARAVVVAPSVVADRYVQLTPAYRTGPALADGAVLPASRNHVPVEIDQIYDSITELGDALGPDGANADGALSELLRTGADNLDGNGEAIGDGVEQFGKAAKTLDGSSGDLFETLSSLQTFTTMLKNKDTDVRTAQERLDEVVSFFADNKDDLTGALEELGKALGQVKTFIEDNRGELKKNVDRLVPITRTLVEQRASLAEALDVAPLAADNVVNAYNPDTRTLDGRANLNEISSGGPLLPLPVAGTEKGEGRLEHHHHHH”, the protein production result was “not failed”.

Regarding “MTPMPSSVKPVEGRSVLIEWQDGHSSLYENVYLREHCQCAECVHEWTGEKLISRERIPADIRPVSVSAVGNYALSIRFSDGHGTGVYSYELLRKICPCPLCKA”, the protein production result was “failed”.

Take “MLRVVEVCWRESHMKVLAINSSPRMDKGNTALILNPFLEGMKEAGAEVELFYTKKLKISPCTGEFNCWLKTPGKCYQNDDMNILYPRIDAADVIVFATPVYVDGVTGQMKNFIDRMLPRVEPFVELRDGHCRHPVRGGPKALKFVLVSNCGFWEMDNFDSLLVFMKAFCKNASTEFAGALLRPHGEALSSMLEMGAPIDDVFEAAREVGRQLVKEGKMSQETLDIVSRELLPKEMYIQIANQTFRQCLESLDRLEHHHHHH”: the protein production result is “failed”.

For the sequence “MDFHTDTIILLAGLLFIVGVITAKFSTRLGVPALVLFILVGMLVGSDGLGLIHFDFSQAHFAQLIGIFALVIILFEGGLQTKWKTVQSVAVPSLSLATFGVLITSTLVAVAAKYVLGVSWLEAYLFGAIVGSTDAAAVFAVLKEQNIKDRLATTLEAESGTNDPMAVFLTLSLIELITIGSMNPLHLFGSFLWQMGAGLILGFGLGKLGSYSINKINLDSSGLYPVFALAFALLTYSVTAMIGASGLLAVYVAALVIGNQDLTYRHSIFRFNEGFAWMMQMLMFIILGLLVFPNQLFEASIFIKGILLSLILMLVARPVAVFLTTIKMRFDWKEKLFLSWAGLRGAVPIVLATFPMTAGLENSPLFFNVVFFVVLTSALIQGSTIAHFANKLQLTGPQKTTPLHSLELVSIGKANAEIVELEMKQDTPVIGKTLEEINLPKDVLVNAIIRDEQLITPYGKTTIQADDILYVLVSKKKKRQLKELFQAKES”, the protein production result was “failed”.

Take “MPAQQAEQAANLGLAGFQFLAQGVFAALLLQLHAFEFGARLTADLPLALLVGMLGAEGLFGLARAVFAHPLGGRLGLAARLGPGFAGFHERLYLRNVTQSE”: the protein production result is listed as “failed”.

As for “MANCFAPQLTFPSFSPRHFSPRMSHQSPKPSTSTTTSIFTSATKLLWGPSLPPGLLISTARTAWTTVWQLMMTQLAPSDSSGSYTRPTSKFRLDPTQFTSAASSELHLYVGLPCPWAHRTLIVRALKGLNDAVPVSIASPGQDGSWEFKNNNIPIKDKDKLIPSLDKANRCRNLKEVYKSRSGGYDGRCTVPMLWDLRKKDVVCNESYDIIEFFNSGLNKLARNDNLDLSPPELKEMIQGWNQIVYPKVNNGVYRCGFAQSQEAYDGAVNELFSTLDEIEDHLGSNRYLCGERLTLADVCLFTTLIRFDSVYNILFKCTKKKLVEYPNLYGYLREIYQIPGVAATCDISAIMDGYYKTLFPLNASGIQPAISSSGDQDSLWRPHNRDLVGKAIEAQLSV”, the protein production entry is on record as “failed”.

Source of the values: a protein production outcome set (Wang et al. 2014).
